Measurements as given in article PMC11995805 (BBA Advances, 2025).

Biological target: T1, Recombinant FLAG-tagged shroom-2 PDZ domain (1st-110th amino acid) (human, UniProt Q13796 1-110)
T1 sequence (looked up): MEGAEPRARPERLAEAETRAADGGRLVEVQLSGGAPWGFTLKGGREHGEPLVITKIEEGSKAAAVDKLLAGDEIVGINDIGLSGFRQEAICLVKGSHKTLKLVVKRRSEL
Experiment: co-IP

B1: His-tagged peptide of the carboxy terminus of claudin-11, NH2-…-COOH (peptide)
peptide: {H2N-Met-H2N-H2N-H2N-H2N-H2N-H2N}-PTHAKSAHV-OH
SMILES: CSCC[C@H](N)C(=O)N1CCC[C@H]1C(=O)N[C@H](C(=O)N[C@@H](Cc1c[nH]cn1)C(=O)N[C@@H](C)C(=O)N[C@@H](CCCCN)C(=O)N[C@@H](CO)C(=O)N[C@@H](C)C(=O)N[C@@H](Cc1c[nH]cn1)C(=O)N[C@H](C(=O)O)C(C)C)[C@@H](C)O
B1 gave a Kd of 3.36 µM.
